One test concerns the target T1, GST-MAGE-G1 (human, UniProt Q96MG7 1-304).
T1 sequence (looked up): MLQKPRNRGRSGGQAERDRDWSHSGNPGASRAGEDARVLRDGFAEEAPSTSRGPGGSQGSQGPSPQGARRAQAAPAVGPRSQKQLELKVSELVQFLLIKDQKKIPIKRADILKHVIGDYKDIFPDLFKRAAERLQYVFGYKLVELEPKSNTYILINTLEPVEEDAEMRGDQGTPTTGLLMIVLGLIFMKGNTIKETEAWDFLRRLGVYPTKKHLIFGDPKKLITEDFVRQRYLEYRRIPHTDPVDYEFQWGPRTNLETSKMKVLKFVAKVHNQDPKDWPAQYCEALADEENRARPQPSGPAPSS
Nature of the test: pull-down.

Test [1] addresses T2, MAGE-G1 (full length, coexpressed with NSE1) (human, UniProt Q96MG7 1-304).
T2 sequence (looked up): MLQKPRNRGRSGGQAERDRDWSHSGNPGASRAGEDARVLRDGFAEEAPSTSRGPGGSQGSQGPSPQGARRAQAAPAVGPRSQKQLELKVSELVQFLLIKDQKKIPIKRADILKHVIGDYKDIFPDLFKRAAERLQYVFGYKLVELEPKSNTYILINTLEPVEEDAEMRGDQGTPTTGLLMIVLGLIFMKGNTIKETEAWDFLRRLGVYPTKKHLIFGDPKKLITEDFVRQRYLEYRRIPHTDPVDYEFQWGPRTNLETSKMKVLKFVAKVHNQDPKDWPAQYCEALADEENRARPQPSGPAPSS
Nature of the test: co-purification after coexpression in bacteria.

From article PMC4509788 (Molecular cell, 2010) come the findings set out here.

B1: NSE1 (purified recombinant) (natural protein, UniProt Q8WV22 1-266, looked up)
chain: MQGSTRRMGVMTDVHRRFLQLLMTHGVLEEWDVKRLQTHCYKVHDRNATVDKLEDFINNINSVLESLYIEIKRGVTEDDGRPIYALVNLATTSISKMATDFAENELDLFRKALELIIDSETGFASSTNILNLVDQLKGKKMRKKEAEQVLQKFVQNKWLIEKEGEFTLHGRAILEMEQYIRETYPDAVKICNICHSLLIQGQSCETCGIRMHLPCVAKYFQSNAEPRCPHCNDYWPHEIPKVFDPEKERESGVLKSNKKSLRSRQH
For the molecule B1, the binding result with GST-MAGE-G1 was “binds”.

B2: NSE1 (full length, coexpressed with MAGE-G1) (natural protein, UniProt Q8WV22 1-266, looked up)
chain: MQGSTRRMGVMTDVHRRFLQLLMTHGVLEEWDVKRLQTHCYKVHDRNATVDKLEDFINNINSVLESLYIEIKRGVTEDDGRPIYALVNLATTSISKMATDFAENELDLFRKALELIIDSETGFASSTNILNLVDQLKGKKMRKKEAEQVLQKFVQNKWLIEKEGEFTLHGRAILEMEQYIRETYPDAVKICNICHSLLIQGQSCETCGIRMHLPCVAKYFQSNAEPRCPHCNDYWPHEIPKVFDPEKERESGVLKSNKKSLRSRQH
In the case of B2, the binding result in test [1] was “binds”.
